One block for each binder: values may come before it.
B5: Recombinant human BMP10 growth factor (GF)-domain (R&D Systems) (ligand, UniProt O95393 317-424, looked up)
chain: NAKGNYCKRTPLYIDFKEIGWDSWIIAPPGYEAYECRGVCNYPLAEHLTPTKHAIIQALVHLKNSQKASKACCVPTKLEPISILYLDKGVVTYKFKYEGMAVSECGCR
notes: growth factor (GF) domain of human BMP10, the cut product of the BMP10 precursor; also called BMP10 GF-domain; source: bought: R&D Systems (cat. No. 2926-BP-025/CF)

Legend:
[1] = biological target: B5; assay: SPR; Biacore T200; BMP10 GF-domain amine-coupled to a CM5 chip (1300 RU); ALK1-Fc, BMPRII-Fc or monomeric BMPRII WT and mutant ECDs injected at 40 ul/min; 10 mM HEPES pH 7.4, 150 mM NaCl, 3.4 mM EDTA, 0.5 mg/ml BSA, 0.005% P20, 25 °C; 1:1 model, KD = kd/ka; details: both partners purified
[2] = biological target: T1, BMPRII-Fc (R&D Systems) (UniProt Q13873 27-150); assay: SPR; BMP10 flowed over a BMPRII-Fc surface, with ALK1 present (Supplementary Fig 5c); details: both partners purified
T1 construct: BMPRII part of the bought Fc fusion; source: bought: R&D Systems (cat. No. 811-BR)
T1 sequence (looked up): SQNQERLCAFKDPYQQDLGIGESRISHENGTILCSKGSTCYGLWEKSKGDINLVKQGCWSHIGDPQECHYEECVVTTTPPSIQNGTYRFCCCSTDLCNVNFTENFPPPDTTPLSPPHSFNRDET

[3] = biological target: T2, BMPRII ECD Q92H (human, UniProt Q13873-1 27-150, Q92H); assay: SPR; Biacore T200; BMP10 GF-domain amine-coupled to a CM5 chip (1300 RU); ALK1-Fc, BMPRII-Fc or monomeric BMPRII WT and mutant ECDs injected at 40 ul/min; 10 mM HEPES pH 7.4, 150 mM NaCl, 3.4 mM EDTA, 0.5 mg/ml BSA, 0.005% P20, 25 °C; 1:1 model, KD = kd/ka; details: both partners purified
T2 construct: BMPRII (BMPR2) extracellular domain, human, amino acids 27-150 of the cDNA NM_001204; mutation found in PAH patients; source: E. coli Rosetta DE3, periplasm, purified (HisTrap, TEV cleavage, Superdex 75); not shown: DsbA, N-terminal, cleaved; His6, N-terminal, cleaved
T2 sequence (looked up): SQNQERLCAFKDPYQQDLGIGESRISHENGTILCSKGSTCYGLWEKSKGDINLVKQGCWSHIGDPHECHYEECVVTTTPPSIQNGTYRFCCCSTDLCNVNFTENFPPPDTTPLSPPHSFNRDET

[4] = biological target: T3, BMPRII ECD E98K (human, UniProt Q13873-1 27-150, E98K); assay: as above; details: both partners purified
T3 construct: BMPRII (BMPR2) extracellular domain, human, amino acids 27-150 of the cDNA NM_001204; mutation found in PAH patients; source: E. coli Rosetta DE3, periplasm, purified (HisTrap, TEV cleavage, Superdex 75); not shown: DsbA, N-terminal, cleaved; His6, N-terminal, cleaved
T3 sequence (looked up): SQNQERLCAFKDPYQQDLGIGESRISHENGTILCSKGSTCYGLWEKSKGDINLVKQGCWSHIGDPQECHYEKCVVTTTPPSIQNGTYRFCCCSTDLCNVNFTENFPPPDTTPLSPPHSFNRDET

[5] = biological target: T4, BMPRII ECD N126S (human, UniProt Q13873-1 27-150, N126S); assay: as above; details: both partners purified
T4 construct: BMPRII (BMPR2) extracellular domain, human, amino acids 27-150 of the cDNA NM_001204; mutation found in PAH patients; source: E. coli Rosetta DE3, periplasm, purified (HisTrap, TEV cleavage, Superdex 75); not shown: DsbA, N-terminal, cleaved; His6, N-terminal, cleaved
T4 sequence (looked up): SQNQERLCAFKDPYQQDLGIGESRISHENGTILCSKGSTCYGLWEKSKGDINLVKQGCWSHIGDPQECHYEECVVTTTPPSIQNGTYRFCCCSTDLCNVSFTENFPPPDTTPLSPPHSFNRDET

[6] = biological target: the molecule itself; assay: crystal structure; BMP10:BMPRII ECD binary complex, two crystal forms (P212121, 1.48 Å; C2, 2.40 Å); complex refolded from denatured BMP10 GF-domain with excess BMPRII ECD
[7] = biological target: T3, BMPRII ECD E98K; assay: native gel or EMSA; prodomain displacement: Pro:BMP10 premixed with BMPRII WT or mutant ECDs at 1:2 and 1:5 molar ratio, 20 mM Tris, 150 mM NaCl, pH 7.4, 30 min at room temperature, 12% native PAGE, Coomassie, densitometry of Pro:BMP10/prodomain; details: both partners purified
[8] = biological target: T4, BMPRII ECD N126S; assay: as above; details: both partners purified

B3: BMPRII ECD S107P (domain or fragment, human, UniProt Q13873-1 27-150, looked up)
chain: SQNQERLCAFKDPYQQDLGIGESRISHENGTILCSKGSTCYGLWEKSKGDINLVKQGCWSHIGDPQECHYEECVVTTTPPPIQNGTYRFCCCSTDLCNVNFTENFPPPDTTPLSPPHSFNRDET
notes: BMPRII (BMPR2) extracellular domain, human, amino acids 27-150 of the cDNA NM_001204; mutation found in PAH patients; source: E. coli Rosetta DE3, periplasm, purified (HisTrap, TEV cleavage, Superdex 75); not shown: DsbA, N-terminal, cleaved; His6, N-terminal, cleaved
fold tighter binding than WT BMPRII ECD [1]: ~4 fold

B4: BMPRII ECD G89E (domain or fragment, human, UniProt Q13873-1 27-150, looked up)
chain: SQNQERLCAFKDPYQQDLGIGESRISHENGTILCSKGSTCYGLWEKSKGDINLVKQGCWSHIEDPQECHYEECVVTTTPPSIQNGTYRFCCCSTDLCNVNFTENFPPPDTTPLSPPHSFNRDET
notes: BMPRII (BMPR2) extracellular domain, human, amino acids 27-150 of the cDNA NM_001204; source: E. coli Rosetta DE3, periplasm, purified (HisTrap, TEV cleavage, Superdex 75); not shown: DsbA, N-terminal, cleaved; His6, N-terminal, cleaved
fold reduction in affinity against WT BMPRII ECD [1]: > 100 fold

Binder: B5
fold weaker affinity with ALK1 present than without ALK1 [2]: ~5 fold
binding result [3]: binds
binding result [4]: binds
binding result [5]: binds

B6: BMP10 growth factor (GF)-domain from Pro:BMP10 made in HEK EBNA cells (ligand, human, UniProt O95393 317-424, looked up)
chain: NAKGNYCKRTPLYIDFKEIGWDSWIIAPPGYEAYECRGVCNYPLAEHLTPTKHAIIQALVHLKNSQKASKACCVPTKLEPISILYLDKGVVTYKFKYEGMAVSECGCR
notes: growth factor (GF) domain of human BMP10, cut by furin from the product of the full-length open reading frame (NM_014482); also called BMP10 GF-domain; source: HEK EBNA, full-length BMP10 cDNA co-transfected with FURIN, purified from conditioned medium as Pro:BMP10
binding result [6]: binds
binding result [7]: binds
binding result [8]: binds

Continued, values first:

fold reduction in affinity against WT BMPRII ECD [1]: < 2 fold
B1: BMPRII ECD G89A (domain or fragment, human, UniProt Q13873-1 27-150, looked up)
chain: SQNQERLCAFKDPYQQDLGIGESRISHENGTILCSKGSTCYGLWEKSKGDINLVKQGCWSHIADPQECHYEECVVTTTPPSIQNGTYRFCCCSTDLCNVNFTENFPPPDTTPLSPPHSFNRDET
notes: as for B4

fold reduction in affinity against WT BMPRII ECD [1]: > 100 fold
B2: BMPRII ECD G89W (domain or fragment, human, UniProt Q13873-1 27-150, looked up)
chain: SQNQERLCAFKDPYQQDLGIGESRISHENGTILCSKGSTCYGLWEKSKGDINLVKQGCWSHIWDPQECHYEECVVTTTPPSIQNGTYRFCCCSTDLCNVNFTENFPPPDTTPLSPPHSFNRDET
notes: as for B4

Source: publication PMC9064986, “Crystal structures of BMPRII extracellular domain in binary and ternary receptor complexes with BMP10” (Nature Communications, 2022)
